Reference: US20030113828

Target: integrin αIIbβ3 (wild type) (UniProt P08514)

Substance: Syk truncation mutant (residues 1-330)
- adhesion dependent phosphorylation of Vav1: Over expression of Syk(1-330) also inhibited adhesion dependent phosphorylation of Vav1
